B1: YDL225W (protein, UniProt Q07657 2-551, looked up)
Seventh homolog of septin 1: STASTPPINLFRRKKEHKRGITYTMLLCGPAGTGKTAFANNLLETKIFPHKYQYGKSNASISSNPEVKVIAPTKVVSFNSKNGIPSYVSEFDPMRANLEPGITITSTSLELGGNKDQGKPEMNEDDTVFFNLIMTHGIGENLDDSLCSEEVMSYLEQQFDIVLAEETRIKRNPRFEDTRVHVALYFIEPTGHGLREVDVELMKSISKYTNVLPIITRADSFTKEELTQFRKNIMFDVERYNVPIYKFEVDPEDDDLESMEENQALASLQPFAIITSDTRDSEGRYVREYPWGIISIDDDKISDLKVLKNVLFGSHLQEFKDTTQNLLYENYRSEKLSSVANAEEIGPNSTKRQSNAPSLSNFASLISTGQFNSSQTLANNLRADTPRNQVSGNFKENEYEDNGEHDSAENEQEMSPVRQLGREIKQENENLIRSIKTESSPKFLNSPDLPERTKLRNISETVPYVLRHERILARQQKLEELEAQSAKELQKRIQELERKAHELKLREKLINQNKLNGSSSSINSLQQSTRSQIKKNDTYTDLASIASGRD
B2: YJR076C (protein, UniProt P32458 2-415, looked up)
Cell division control protein …: SGIIDASSALRKRKHLKRGITFTVMIVGQSGSGRSTFINTLCGQQVVDTSTTILLPTDTSTEIDLQLREETVELEDDEGVKIQLNIIDTPGFGDSLDNSPSFEIISDYIRHQYDEILLEESRVRRNPRFKDGRVHCCLYLINPTGHGLKEIDVEFIRQLGSLVNIIPVISKSDSLTRDELKLNKKLIMEDIDRWNLPIYNFPFDEDEISDEDYETNMYLRTLLPFAIIGSNEVYEMGGDVGTIRGRKYPWGILDVEDSSISDFVILRNALLISHLHDLKNYTHEILYERYRTEALSGESVAAESIRPNLTKLNGSSSSSTTTRRNTNPFKQSNNINNDVLNPASDMHGQSTGENNETYMTREEQIRLEEERLKAFEERVQQELLLKRQELLQREKELREIEARLEKEAKIKQEE
B3: YLR314C (protein, UniProt P32457 2-520, looked up)
Cell division control protein …: SLKEEQVSIKQDPEQEERQHDQFNDVQIKQESQDHDGVDSQYTNGTQNDDSERFEAAESDVKVEPGLGMGITSSQSEKGQVLPDQPEIKFIRRQINGYVGFANLPKQWHRRSIKNGFSFNLLCVGPDGIGKTTLMKTLFNNDDIEANLVKDYEEELANDQEEEEGQGEGHENQSQEQRHKVKIKSYESVIEENGVKLNLNVIDTEGFGDFLNNDQKSWDPIIKEIDSRFDQYLDAENKINRHSINDKRIHACLYFIEPTGHYLKPLDLKFMQSVYEKCNLIPVIAKSDILTDEEILSFKKTIMNQLIQSNIELFKPPIYSNDDAENSHLSERLFSSLPYAVIGSNDIVENYSGNQVRGRSYPWGVIEVDNDNHSDFNLLKNLLIKQFMEELKERTSKILYENYRSSKLAKLGIKQDNSVFKEFDPISKQQEEKTLHEAKLAKLEIEMKTVFQQKVSEKEKKLQKSETELFARHKEMKEKLTKQLKALEDKKKQLELSINSASPNVNHSPVPTKKKGFLR
B4: YBR102C (protein, UniProt P38261 1-753, looked up)
Exocyst complex component …: MVEFSLKKARNNWKHVKKSASSPAKQKTPPSPAKPKQKTKKNPYSDLKDPATSYTLPTINARERSRVATSMQRRLSIHNTNYAPPTLDYSMPLPDMPNMIVPNDNVDSSHNNSSFTTENESVSSKGPSNSLNLSTADLSLNDSSYNKVPARSAMRNTVNPSGSNDPFNNSTSLRKMLANPHFNAKDFVHDKLGNASAITIDKFTSNLTDLSIQVQEEVKLNINKSYNEIMTVNNDLNVAMLELKRVRANINDLNEVLDQCTKIAEKRLQLQDQIDQERQGNFNNVESHSNSPALLPPLKAGQNGNLMRRDRSSVLILEKFWDTELDQLFKNVEGAQKFINSTKGRHILMNSANWMELNTTTGKPLQMVQIFILNDLVLIADKSRDKQNDFIVSQCYPLKDVTVTQEEFSTKRLLFKFSNSNSSLYECRDADECSRLLDVIRKAKDDLCDIFHVEEENSKRIRESFRYLQSTQQTPGRENNRSPNKNKRRSMGGSITPGRNVTGAMDQYLLQNLTLSMHSRPRSRDMSSTAQRLKFLDEGVEEIDIELARLRFESAVETLLDIESQLEDLSERISDEELMLLNLISLKIEQRREAISSKLSQSILSSNEIVHLKSGTENMIKLGLPEQALDLFLQNRSNFIQDLILQIGSVDNPTNYLTQLAVIRFQTIKKTVEDFQDIFKELGAKISSILVDWCSDEVDNHFKLIDKQLLNDEMLSPGSIKSSRKQIDGLKAVGLDFVYKLDEFIKKNSDKIR
B5: YER008C (protein, UniProt P33332 1-1336, looked up)
Exocyst complex component SEC3: MRSSKSPFKRKSHSRETSHDENTSFFHKRTISGSSAHHSRNVSQGAVPSSAPPVSGGNYSHKRNVSRASNSSQTSNFLAEQYERDRKAIINCCFSRPDHKTGEPPNNYITHVRIIEDSKFPSSRPPPDSKLENKKKRLLILSAKPNNAKLIQIHKARENSDGSFQIGRTWQLTELVRVEKDLEISEGFILTMSKKYYWETNSAKERTVFIKSLITLYIQTFEGHVPELVNWDLSLFYLDERSYQRAVITNRPGSVSPIKSPTSNFTTNTTQSVGSVPFSAPTERTRRSETESVNPVSTPASVEYHAGMKSLNKAPYSSNSTLNEVNKRYELEQQQQQEEAELRRLEEQKRLQLQKENEMKRLEEERRIKQEERKRQMELEHQRQLEEEERKRQMELEAKKQMELKRQRQFEEEQRLKKERELLEIQRKQREQETAERLKKEEQEALAKKEEEEKSKRNKVDNESYTQEINGKVDNLLEDLNAVLAEETETTPTMQNGTYVPERSTARAHDQLKKPLNIAKVESLGGSDLNDSISLSDEIAGLNTSNLSGEDQDEKNDLSFEKGDEVRYSNNFEGEAPHVYHEVSIIQEEAPAVSQKLILPEENNESEALIESKEEIKTMENIDDEVLLEILTDINWSIEDDADSMIERIDLRLAETEYLFNQNLLSLQKIGPNIRPYEDKVNDECHRIIPTLSLFLMEMSNFSNDIENVESQDNGLQVESANKKLLWNTLDELLKTVSLDEISLNQLLECPIREKNLPWMENQLNLLLKAFQAIGSDGNEVEYNLREISGLKQRLQFYEKVTKIFLNRIVEEMQKKFSNIRGQDISHDQMIRILTTLLIFSPLILFCKEISQKSYQAIVENWNVSIQPVYMELWTKKISQLQGIDTNDEKMNELSLSQLLNEWDTFRKERKTNDINPVFKNSFSLLTECLQTMRQECIVYQNFVEVFFHISSKHNFEEYIKHFNDPDAPPILLDTVKVMQSDREAAVIETQLVSRIFQPIVTRLSSYFVELVKAEPTVAPALTFYLENEIKSLESSNHEFLLSAVTRMYTQIKQVWSDNVEEQVLHFERISNATTNGEILPGILDLPVGLKNSEDLFQFAKRSMDIKDTDEGYESIELMNSSFRKLSIAATRSITHKEVNSSINPNLSDTAALNNDYMETISLLVNSNWLTEMLSMLNFNKDGIFDTSLQNVKKVFDVEKESYASFLLRDTMPKLTAFVYGVSNIIENTNNVNMTNPSRWAAYSRQNLENILLAYTSHEIETLVKRLHTHMVNDFGYHQENAINNVLCDKLWSCIQGQTVSLYLKLYTVIDKHYRGTNIRFTKNDIISAFEEYKNA

What follows are molecules tested on BEM1-1 (assay: DHFR-PCA on solid medium, bait BEM1-1 (Fig. 1B)). Settings: bait BEM1-1, label = prey; 2-8 replicates.
Assay type: cell-based, Saccharomyces cerevisiae
Excerpt: (§1) Supplement 41467_2021_21873_MOESM8_ESM.xlsx, sheet "Fig1B" | column: medsize; medrep; Ratio; Score

| Molecule | medrep (log2 median colony size normalized to plate background, PCA score) |
| --- | --- |
| B1 | 2.78 |
| B2 | 3.2032 |
| B3 | 3.511 |
| B4 | 1.504 |
| B5 | 1.89 |

Same assay, conditions: bait BEM1-1, label = prey; only significant differences showed; PPIs completely lost have a ratio of 0.1 and the gained PPIs 2.5

| Molecule | Ratio (SH3-deleted/WT medrep) |
| --- | --- |
| B4 | 0.1 |
| B5 | 0.1 |

The molecules below were run on ABP1 (assay: DHFR-PCA on solid medium, bait ABP1 (Fig. 1B)). Settings: bait ABP1, label = prey; 2-4 replicates.
Assay type: cell-based, Saccharomyces cerevisiae
Excerpt: as §1

| Molecule | medrep (log2 median colony size normalized to plate background, PCA score) |
| --- | --- |
| B1 | 2.276 |
| B2 | 2.021 |
| B3 | 4.381 |
| B5 | 1.509 |

Same assay, conditions: bait ABP1, label = prey; only significant differences showed; PPIs completely lost have a ratio of 0.1 and the gained PPIs 2.5

| Molecule | Ratio (SH3-deleted/WT medrep) |
| --- | --- |
| B2 | 1.374 |
| B5 | 2.5 |

The molecules below were run on BEM1-2 (assay: DHFR-PCA on solid medium, bait BEM1-2 (Fig. 1B)). Settings: bait BEM1-2, label = prey; 2-8 replicates.
Assay type: cell-based, Saccharomyces cerevisiae
Excerpt: as §1

| Molecule | medrep (log2 median colony size normalized to plate background, PCA score) |
| --- | --- |
| B1 | 2.78 |
| B2 | 1.843 |
| B3 | 1.7566 |
| B4 | 1.504 |
| B5 | 1.89 |

Same assay, conditions: bait BEM1-2, label = prey; only significant differences showed; PPIs completely lost have a ratio of 0.1 and the gained PPIs 2.5

| Molecule | Ratio (SH3-deleted/WT medrep) |
| --- | --- |
| B1 | 0.1 |
| B2 | 0.5753 |
| B3 | 0.5003 |
| B4 | 0.1 |
| B5 | 0.1 |
